B1: mek4-AP soluble receptor fusion protein (mouse Mek4 receptor extracellular domain fused to secreted human placental alkaline phosphatase) (receptor)
chain: ELSPQPSNEVNLLDSKTIQGELGWISYPSHGWEEISGVDEHYTPIRTYQVCNVMDHSQNNWLRTNWVPRNSAQKIYVELKFTLRDCNSIPLVLGTCKETFNLYYMESDDHGVKFREHQFTKIDTIAADESFTQMDLGDRILKLNTEIREVGPVNKKGFYLAFQDVGACVALVSVRVYFKKCPFTVKNLAMFPDTVPMDSQSLVEVRGSCVNNSKEEDPPRMYCSTEGEWLVPIGKCTCNAGYEERGFICQACRPGFYKASDGAAKCAKCPPHSSTQEDGSMNCRCENNYFRAEKDPPSMACARPPSAPRNVISNINETSVILDWSWPLDTGGRKDITFNIICKKCGWNVRQCEPCSPNVRFLPRQLGLTNTTVTVTDLLAHTNYTFEIDAVNGVSELSSPPRQYAAVSITTNQAAPSPVMTIKKDRTSRNSISLSWQEPEHPNGIILDYEVKYYQKQEQETSYTILRARGTNVTISSLKPDTTYVFQIRARTAAGYGTNSRKFEFETSPDSFSISGENSHGSSG
notes: extracellular domain; Used as unpurified conditioned supernatant of stably transfected NIH-3T3 cells; Apparent molecular weight about 150 kD; also called AP-mek4; not shown: secreted human placental alkaline phosphatase, as encoded by vector APtag-1 (Flanagan and Leder 1990)

Key:
[1] = target: T1, cell surface ligand expressed endogenously in the rat liver stromal cell line BRL-3A (rat); assay: Scatchard analysis of AP fusion binding to BRL-3A cells (endogenous ligand)
T1 construct: PI-PLC sensitive (GPI-linked) cell surface ligand; also called endogenous ligand of BRL-3A cells
Protocol: (§1) (FIGS. 3A and 3D) Cells were treated with saturating amounts of mek4-AP or sek-AP, or with AP, each at 500 OD/hr/ml. Columns show the average of two binding determinations, and error bars indicate the difference between the two. (FIGS. 3B–C and 3E–F) show the Scatchard analyses of binding. (FIGS. 3A–3C illsutrate binding to COS cells transfected with Elf-1, and FIGS. 3D–F show endogenous ligand expression by the BRL-3A cell line).
A panel of cell lines was tested with mek4-AP and sek-AP for endogenous expression of a cell surface ligand. Briefly, cells were treated with supernatants containing mek4-AP, sek-AP or unfused AP as a control, each at 1,000 OD/hr/ml. The cells were then washed, lysed and assayed colorimetrically for bound AP activity. […] The highest binding was shown by the rat liver stromal cell line BRL-3A, the mink lung fibroblast line Mv1Lu, and two neural crest cell lines, NC7mycblue and NC7EIablue. The BRL-3A cell line was analyzed further. […] The number of binding sites per BRL-3A cell is approximately 50,000. In situ staining was also used to examine the cell surface binding of mek4-AP and sek-AP to BRL-3A cells, and indicated expression of the ligand over the whole cell surface.

[2] = target: B1; assay: Scatchard analysis, COS cells transfected with Elf-1
[3] = target: T2, sek-AP soluble receptor fusion protein (mouse Sek receptor extracellular domain fused to secreted human … (mouse; human, UniProt Q03137 20-547); assay: as above
T2 construct: extracellular domain; Used as unpurified conditioned supernatant of stably transfected NIH-3T3 cells; Apparent molecular weight about 150 kD; also called Ap-sek; not shown: secreted human placental alkaline phosphatase, as encoded by vector APtag-1 (Flanagan and Leder 1990)

[4] = target: B1; assay: Scatchard analysis of AP fusion binding to COS cells transfected with Elf-1, colorimetric assay of bound AP activity
Protocol: as §1

[5] = target: T2, sek-AP soluble receptor fusion protein …; assay: as above
Protocol: as §1

T2 sequence (Q03137 other isoform, or with tags, fused parts or gaps): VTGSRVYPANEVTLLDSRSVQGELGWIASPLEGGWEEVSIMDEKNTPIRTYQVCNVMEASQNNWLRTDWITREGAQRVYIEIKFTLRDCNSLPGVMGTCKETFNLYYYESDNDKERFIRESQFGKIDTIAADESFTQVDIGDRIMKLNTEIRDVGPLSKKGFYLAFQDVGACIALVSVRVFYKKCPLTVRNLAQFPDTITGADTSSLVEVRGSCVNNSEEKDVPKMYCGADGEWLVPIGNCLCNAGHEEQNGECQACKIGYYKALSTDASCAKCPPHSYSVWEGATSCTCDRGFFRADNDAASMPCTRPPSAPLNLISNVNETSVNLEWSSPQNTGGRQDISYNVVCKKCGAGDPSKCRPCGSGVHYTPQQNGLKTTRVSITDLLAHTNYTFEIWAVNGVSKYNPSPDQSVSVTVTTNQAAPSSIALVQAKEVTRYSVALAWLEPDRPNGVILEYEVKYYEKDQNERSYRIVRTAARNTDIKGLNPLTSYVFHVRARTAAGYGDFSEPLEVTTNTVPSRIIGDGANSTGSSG

Kd [1]	Kd [2]	Kd [3]	Kd [4]	Kd [5]	Binder
1.3 nM					B1
	~1 nM	~10 nM	1.8 nM	18 nM	Elf-1 (mouse EPH ligand family-1), expressed on the surface of transiently transfected COS cells (ligand, C-terminal glycosyl phosphatidylinositol anchor (sensitive to PI-PLC); attachment residue not stated, The full-length cDNA (209 amino acids) was transfected; also called muElf-1; cell surface Elf-1) RNEDPARANADRYAVYWNRSNPRFQVSAVGDGGGYTVEVSINDYLDIYCPHYGAPLPPAERMERYILYMVNGEGHASCDHRQRGFKRWECNRPAAPGGPLKFSEKFQLFTPFSLGFEFRPGHEYYYISATPPNLVDRPCLRLKVYVRPTNETLYEAPEPIFTSN

From patent US6777536 (Harvard, dated 2004)
